Assay results: IntAct's records for PubMed 31063459

B1: Dynamin-1-like protein (Mus musculus), Q8K1M6-3 (parent)
chain: MEALIPVINKLQDVFNTVGADIIQLPQIVVVGTQSSGKSSVLESLVGRDLLPRGTGVVTRRPLILQLVHVSPEDKRKTTGEENGVEAEEWGKFLHTKNKLYTDFDEIRQEIENETERISGNNKGVSPEPIHLKVFSPNVVNLTLVDLPGMTKVPVGDQPKDIELQIRELILRFISNPNSIILAVTAANTDMATSEALKISREVDPDGRRTLAVITKLDLMDAGTDAMDVLMGRVIPVKLGIIGVVNRSQLDINNKKSVTDSIRDEYAFLQKKYPSLANRNGTKYLARTLNRLLMHHIRDCLPELKTRINVLAAQYQSLLNSYGEPVDDKSATLLQLITKFATEYCNTIEGTAKYIETSELCGGARICYIFHETFGRTLESVDPLGGLNTIDILTAIRNATGPRPALFVPEVSFELLVKRQIKRLEEPSLRCVELVHEEMQRIIQHCSNYSTQELLRFPKLHDAIVEVVTCLLRKRLPVTNEMVHNLVAIELAYINTKHPDFADACGLMNNNIEEQRRNRLARELPSAGSRDKVPSAGGGIGDGGQEPTTGNWRGMLKTSKAEELLAEEKSKPIPIMPASPQKGHAVNLLDVPVPVARKLSAREQRDCEVIERLIKSYFLIVRKNIQDSVPKAVMHFLVNHVKDTLQSELVGQLYKSSLLDDLLTESEDMAQRRKEAADMLKALQGASQIIAEIRETHLW

Legend:
arp3_human ACTR3, P61158 = variants of: B1; settings: with arp3_human ACTR3, P61158
cof1_human CFL1, P23528 = variants of: B1; settings: with cof1_human CFL1, P23528
cof1_human CFL1, P23528, sequence (P23528 whole entry): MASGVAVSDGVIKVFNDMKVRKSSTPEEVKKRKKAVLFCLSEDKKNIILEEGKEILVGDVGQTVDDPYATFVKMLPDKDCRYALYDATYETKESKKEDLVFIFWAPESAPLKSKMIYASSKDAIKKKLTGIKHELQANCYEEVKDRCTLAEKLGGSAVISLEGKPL

Row | Variant | effect of a mutation on the interaction (arp3_human ACTR3, P61158) | effect of a mutation on the interaction (cof1_human CFL1, P23528)
1 | S600A | decreasing interaction strength | decreasing interaction strength
2 | S600D | increasing interaction strength | increasing interaction strength
